The values below come from PMC7721705 (2020).

Test [1] has as its target T1, CXCL12 (SDF1α) (UniProt P48061-2 22-89). In words: SPR; high-activity fraction (KD2, heterogeneous ligand model).
Test [2] addresses T1, CXCL12 (SDF1α). In words: SPR; low-activity fraction (KD1, heterogeneous ligand model). A general note: Surface plasmon resonance follows binding to a sensor surface in real time, without labels.
Test [3] has as its target T1, CXCL12 (SDF1α). The experiment in a line: SPR; low-activity fraction (kd1).
Test [4] addresses T1, CXCL12 (SDF1α). In words: SPR; high-activity fraction (kd2).

T1 sequence (P48061 22-89): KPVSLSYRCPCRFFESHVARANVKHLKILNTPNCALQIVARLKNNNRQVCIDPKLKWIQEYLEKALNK

B1: CXCR4^QTY29 with C-terminal GSSG linker and rho1D4 tag (receptor)
chain: MEGISIYTSDNYTEEMGSGDYDSMKEPCFREENANYNKTFLPTIYSIIYQTGTVGNGLVILVMGYQKKLRSMTDKYRLHLSTADLQFVTTLPYWATDATANWYFGNFLCKAVHVIYTVNLYSSVLILAFISLDRYLAIVHATNSQRPRKLLAEKVVYVGVWTPAQLLTTPDYTFANVSEADDRYICDRFYPNDLWVVVFQFQHIMVGLILPGIVILSCYCIIISKLSHSKGHQKRKALKTTTTLIQAFFACWQPYYTGISIDSYILLEIIKQGCEFENTVHKWISTTEAQAFYHCCTNPTQYAYLGAKFKTSAQHALTSVSRGSSLKILSKGKRGGHSSVSTESESSSFHSS
The Kd is the constant that tells how readily two partners part at equilibrium. Low readings indicate higher affinity, high ones lower affinity. A word on the koff: it is the rate constant with which the complex falls apart. Read a low koff as slow dissociation. As for B1, the Kd in the test with CXCL12 (SDF1α) [1] is 29 nM; with CXCL12 (SDF1α) [2], 1660 nM. Further, the koff amounted to 0.0356 s⁻¹ in the test with CXCL12 (SDF1α) [3] and 0.00171 s⁻¹ with CXCL12 (SDF1α) [4].

B2: native CXCR4 with C-terminal GSSG linker and rho1D4 tag (receptor)
chain: MEGISIYTSDNYTEEMGSGDYDSMKEPCFREENANFNKIFLPTIYSIIFLTGIVGNGLVILVMGYQKKLRSMTDKYRLHLSVADLLFVITLPFWAVDAVANWYFGNFLCKAVHVIYTVNLYSSVLILAFISLDRYLAIVHATNSQRPRKLLAEKVVYVGVWIPALLLTIPDFIFANVSEADDRYICDRFYPNDLWVVVFQFQHIMVGLILPGIVILSCYCIIISKLSHSKGHQKRKALKTTVILILAFFACWLPYYIGISIDSFILLEIIKQGCEFENTVHKWISITEALAFFHCCLNPILYAFLGAKFKTSAQHALTSVSRGSSLKILSKGKRGGHSSVSTESESSSFHSS
On to B2, for which the values for the dissociation constant (Kd) with CXCL12 (SDF1α) [1] and with CXCL12 (SDF1α) [2] were 56.3 nM and 437 nM, respectively. For the same molecule, the koff came to 0.0375 s⁻¹ with CXCL12 (SDF1α) [3] and 0.00159 s⁻¹ with CXCL12 (SDF1α) [4].
